Experiments:
EphB2 = test: cell-based or functional assay
EphA4 = test: cell-based or functional assay

| One phase association Tau (GPhosEphB ratio fluorescence after Ephrin addition) (EphB2) | One phase association Tau (GPhosEphA ratio fluorescence after Ephrin addition) (EphA4) | Substance |
| --- | --- | --- |
| 9.78 | – | pre-clustered EphrinB2-FC (Fc fusion) |
| – | 9.6 | pre-clustered EphrinA1-FC (Fc fusion) |
